Source: publication PMC5799254, “Target identification of small molecules using large-scale CRISPR-Cas mutagenesis scanning of essential genes” (Nature Communications, 2018)

Target: the molecule itself
Assay: crystal structure; co-crystal of NAMPT (10 mg/mL) with a 5-fold excess of KPT-9274; hanging drops, 20 °C, reservoir 0.2 M NaCl, 0.1 M Tris pH 8.5, 22% PEG 3350

B1: nicotinamide phosphoribosyltransferase (NAMPT) (enzyme, human, UniProt P43490 1-491, looked up)
chain: MNPAAEAEFNILLATDSYKVTHYKQYPPNTSKVYSYFECREKKTENSKLRKVKYEETVFYGLQYILNKYLKGKVVTKEKIQEAKDVYKEHFQDDVFNEKGWNYILEKYDGHLPIEIKAVPEGFVIPRGNVLFTVENTDPECYWLTNWIETILVQSWYPITVATNSREQKKILAKYLLETSGNLDGLEYKLHDFGYRGVSSQETAGIGASAHLVNFKGTDTVAGLALIKKYYGTKDPVPGYSVPAAEHSTITAWGKDHEKDAFEHIVTQFSSVPVSVVSDSYDIYNACEKIWGEDLRHLIVSRSTQAPLIIRPDSGNPLDTVLKVLEILGKKFPVTENSKGYKLLPPYLRVIQGDGVDINTLQEIVEGMKQKMWSIENIAFGSGGGLLQKLTRDLLNCSFKCSYVVTNGLGINVFKDPVADPNKRSKKGRLSLHRTPAGNFVTLEEGKGDLEEYGQDLLHTVFKNGKVTKSYSFDEIRKNAQLNIELEAAHH
notes: nicotinamide phosphoribosyltransferase (NAMPT, NMPRTase), human, full length; also called NMPRTase
With B1 the “stoichiometry N” value was 2.
